Target: biotinylated AP-neuroligin-1 on rat hippocampal neurons (mouse neuroligin-1 with acceptor peptide at the N-terminus, biotinylated with biotin ligase) (mouse) (UniProt Q99K10)
Assay: cell-based or functional assay

biotinylated AP-neuroligin-1 on rat hippocampal neurons (mouse neuroligin-1 with acceptor peptide at the N-terminus, biotinylated with biotin ligase) (mouse), sequence (Q99K10 46-843, form in doubt): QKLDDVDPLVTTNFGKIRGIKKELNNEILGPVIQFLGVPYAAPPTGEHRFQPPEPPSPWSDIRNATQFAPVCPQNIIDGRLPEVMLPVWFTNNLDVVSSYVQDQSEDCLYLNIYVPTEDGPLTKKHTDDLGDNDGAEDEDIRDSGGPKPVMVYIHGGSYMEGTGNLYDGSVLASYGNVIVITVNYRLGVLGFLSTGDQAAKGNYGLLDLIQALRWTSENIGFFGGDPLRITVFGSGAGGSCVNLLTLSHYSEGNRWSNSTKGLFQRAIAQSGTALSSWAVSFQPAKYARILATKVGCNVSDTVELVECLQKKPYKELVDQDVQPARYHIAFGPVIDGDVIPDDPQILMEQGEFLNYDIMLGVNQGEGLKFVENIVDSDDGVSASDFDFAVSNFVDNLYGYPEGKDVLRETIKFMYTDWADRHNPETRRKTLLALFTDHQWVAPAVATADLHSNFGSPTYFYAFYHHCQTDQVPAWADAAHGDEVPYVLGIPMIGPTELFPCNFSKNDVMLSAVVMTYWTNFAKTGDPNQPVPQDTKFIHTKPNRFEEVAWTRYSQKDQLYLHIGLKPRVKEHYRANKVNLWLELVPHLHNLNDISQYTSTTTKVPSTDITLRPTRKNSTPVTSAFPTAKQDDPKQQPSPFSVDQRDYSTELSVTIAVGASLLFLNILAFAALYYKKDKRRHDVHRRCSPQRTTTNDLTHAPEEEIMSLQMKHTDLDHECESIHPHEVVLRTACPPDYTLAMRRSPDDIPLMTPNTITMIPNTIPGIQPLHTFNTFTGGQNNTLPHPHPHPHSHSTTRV

| Substance | clusters/µm of dendrite after two hour incubation [clusters/µm] |
| --- | --- |
| Alexa Fluor 568-conjugated wild-type streptavidin (Molecular Probes) (from UniProt P22629 37-163) | 0.266 |
| monovalent streptavidin A1D3 (one Alive subunit with His6 tag, three Dead subunits), Alexa Fluor 568-conjugated (designed binder) | 0.087 |

Source: US20070099248A1
